A short description of the data set: protein stability index of a GFP-peptide fusion (GPS, HEK-293T) (PSI 1-6); higher = more stable.
The mark [1] stands for this setting: treatment: DMSO, c terminus: a fixed tail appended.
Where [2] appears, read: treatment: MLN4924 1 uM, 8 h, c terminus: a fixed tail appended.
The mark [3] stands for this setting: treatment: DMSO, c terminus: native.
The mark [4] stands for this setting: treatment: MLN4924 1 uM, 8 h, c terminus: native.

± gives the standard deviation.
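Further: 24-mer peptide tiles fused after GFP, lentivirally expressed, FACS-sorted into six equal bins by GFP/DsRed ratio, decoded by Illumina sequencing, PSI is the read-weighted mean bin number.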

Turning to LYGQRNSAPEQELLVQDATPVSNS [GFOD1], the protein stability index was determined as 4.82 ± 0.098 under setting [1] and 4.76 ± 0.11 under setting [2].
Taken in the same sequence, the figures for LYPEGIGARQQQVTTYLHKDYNNL [POMT2] were 3.25 ± 0.15 and 3.35 ± 0.26.
For the sequence LYSMECAFHPLFSLTSGACRLDYR [TCF25], the protein stability index is, setting by setting: under setting [1], 2.25 ± 0.72; under setting [2], 2.38 ± 0.71.
LYVDSLFFLRGRLDQLLRHVMNPL [PRAME] yielded a protein stability index under setting [1] of 3.38 ± 0.99 and a protein stability index under setting [2] of 1.89 ± 0.53.
Consider MAAESLPFSFGTLSSWELEAWYED [DDIT3], for which the protein stability index turned out to be 3.21 ± 0.074 under setting [1] and 3.45 ± 0.23 under setting [2].
Taken in the same sequence, the figures for MAATCEISNIFSNYFSAMYSSEDS [ELF3] were 2.29 ± 0.22 and 2.3 ± 0.21.
Taken in the same sequence, the figures for MAEHRSMDGRMEAATRGGSHLQAA [SCNN1D] were 4.56 ± 0.27 and 4.648 ± 0.04.
As to MAFFLCLGLALGAVFSFLFRAIV [SLC29A1], the protein stability index is 4.33 ± 0.19 under setting [3] and 4.14 ± 0.24 under setting [4].
For MAKFGVHRILLLAISLTKCLESTK [MIA2], the protein stability index was 3.27 ± 0.52 under setting [1] and 3.06 ± 0.8 under setting [2].
On the same counts, the results for MAKKHKKIRLRCQKGIPPSLRGRA [TBC1D10A] are 3.29 ± 0.18 and 3.35 ± 0.29.
On the same counts, the results for MAMAVMLYYSNFVLALEERFGVRP [MFSD9] are 3.3 ± 0.47 and 3.41 ± 0.49.
Consider MAQTVPPCELPCKEYDVARNTGAY [TEKT4], for which the protein stability index under setting [1] worked out at 4.16 ± 0.27 and the protein stability index under setting [2] was 4.08 ± 0.26.
Taken in the same sequence, the figures for MDADMDYERPNVETIKCVVVGDNA [RHOBTB1] were 4.8 ± 0.1 and 4.83 ± 0.14.
On the same counts, the results for MDLKTAVFNAARDGKLRLLTKLLA [FEM1C] are 2.17 ± 0.2 and 2.3 ± 0.32.
On the same counts, the results for MDQLQGLGSDYEQPLEVKNNSNLQ [CDC25A] are 5.09 ± 0.17 and 4.85 ± 0.18.
The sequence MEKKSKPKNSVWKRLKSPFRKKKD [RIT1] registered a protein stability index under setting [1] of 3.69 ± 0.12 and a protein stability index under setting [2] of 3.88 ± 0.3.
Taken in the same sequence, the figures for METQAEQQELETLPTTKMAQTNPT [CRYBA1] were 5.24 ± 0.3 and 5.3 ± 0.29.
For the sequence MGEPAGVAGTMESPFSPGLFHRLD [ATF6], the protein stability index worked out at 3.58 ± 0.14 under setting [1] and 3.79 ± 0.36 under setting [2].
On the same counts, the results for MGETKIIYHLDGQETPYLVKLPLP [DVL3] are 2.2 ± 0.3 and 2.3 ± 0.23.
On the same counts, the results for MGPKTLPQLAGKWQVLCMLSLCCW [PCDHGC5] are 3.21 ± 0.49 and 3.17 ± 0.76.
Taken in the same sequence, the figures for MGRKKKKQLKPWCWYCNRDFDDEK [ZNF207] were 2.39 ± 0.33 and 3.05 ± 0.34.
As to MIQTSKTEITELRRTLQGLEIELQ [KRT13], the protein stability index runs as follows: under setting [1], 3.02 ± 0.28; under setting [2], 3.07 ± 0.24.
On the same counts, the results for MLERIKHEKTVDIYGHVTLMRAQR [PTPRD] are 1.73 ± 0.22 and 2.16 ± 0.38.
On the same counts, the results for MLGKYGSSLEFTELLTLVNRKVSQ [CASP6] are 2.29 ± 0.23 and 2.34 ± 0.43.
Taken in the same sequence, the figures for MLLPQLCWLPLLAGLLPPVPAQKF [SMOC2] were 3.51 ± 0.69 and 3.67 ± 1.4.
Regarding MNDFGIKNMDQVAPVANSYRGTLK [ETS2], the protein stability index under setting [1] was determined as 4.06 ± 0.31 and the protein stability index under setting [2] worked out at 4.02 ± 0.26.
On the same counts, the results for MPQSEEHLLEAEPLSPIQASSVHL are 4.87 ± 0.17 and 4.94 ± 0.17.
On the same counts, the results for MRATPLAAPAGSLSRKKRLELDDN [TRIB3] are 4.57 ± 0.14 and 4.86 ± 0.23.
MRELGLLIFFLFIGVILFSSAVYF [KCNA4]: the protein stability index runs as follows: under setting [1], 2.91 ± 0.35; under setting [2], 2.03 ± 0.64.
Regarding MRSGEPACTMDQARGLDDAAARGG [ZBED3], the protein stability index runs as follows: under setting [1], 5 ± 0.23; under setting [2], 5.06 ± 0.15.
For the sequence MSGRSKRESRGSTRGKRESESRGS [USP39], the protein stability index runs as follows: under setting [1], 4.96 ± 0.12; under setting [2], 5 ± 0.46.
On the same counts, the results for MSHHQEELVPKQPQKRKPQEQLLE [SLC2A12] are 5.25 ± 0.14 and 5.34 ± 0.15.
For the sequence MTEEVIVIAKWDYTAQQDQELDIK [NCK2], the protein stability index reads like this: under setting [1], 2.92 ± 0.29; under setting [2], 2.97 ± 0.33.
On the same counts, the results for MTPAEAEMHFLENAKKLSMYGVDL [EPB41L3] are 3 ± 0.29 and 3.03 ± 0.52.
On the same counts, the results for NAGQSDNRSLAEACSEGDVNAVRK [ANKRD17] are 5.56 ± 0.15 and 5.46 ± 0.15.
Take NAPKFQAENLDVKINENVAAGMRF [PCDHGA10]: the protein stability index runs as follows: under setting [1], 3.77 ± 0.61; under setting [2], 3.86 ± 0.45.
Taken in the same sequence, the figures for NAVRSAMKSEEQKIKDARKGPLVP [KMT5A] were 4.75 ± 0.11 and 5.07 ± 0.13.
On the same counts, the results for NDYICPATNQCTIDKNRRKSCQAC [ESR2] are 4.44 ± 0.21 and 4.83 ± 0.17.
Taken in the same sequence, the figures for NESRRQIQSLTCEVDGLRGTNEAL [PRPH] were 4.7 ± 0.29 and 5.11 ± 0.056.
For the sequence NFCKHNGSKNVFSTFRTPAVLFTG [ATL3], the protein stability index is, setting by setting: under setting [1], 2.21 ± 0.32; under setting [2], 2.33 ± 0.13.
Taken in the same sequence, the figures for NGDITSFLLSVYAPGSSVEYQCQN [CFHR2] were 2.38 ± 0.58 and 2.09 ± 0.24.
NGKEFNNWFNVTGSDKCVFLKNTE [CD69] returned a protein stability index under setting [1] of 3.2 ± 0.31 and a protein stability index under setting [2] of 3.08 ± 0.42.
For NHQKDLFRRTDGRCLIWGRKPKVI [DHCR7], the protein stability index came to 2.66 ± 0.27 under setting [1] and 2.74 ± 0.3 under setting [2].
As for NHSLARHADILAAVETRLSLLNMT [FBXO28], the protein stability index came out at 2.53 ± 0.13 under setting [1] and 2.71 ± 0.19 under setting [2].
Taken in the same sequence, the figures for NIKIWLSLRSYLKRRGPQRSVDVV [PHTF1] were 2.43 ± 0.35 and 2.54 ± 0.36.
Taken in the same sequence, the figures for NILPNTQKVTCFYQPAPYFAAEAR [TENT5D] were 2.49 ± 0.32 and 2.59 ± 0.23.
Take NITRIYNIGKSHQGLKLYAVEISD [CPXM2]: the protein stability index by setting is: under setting [1], 2.34 ± 0.43; under setting [2], 2.31 ± 0.14.
On the same counts, the results for NKCSVYPLTFDKNENMAAKKKSVA [GNB5] are 4.09 ± 0.16 and 4.39 ± 0.48.
Taken in the same sequence, the figures for NKTDVVLILELVSGGELFDFLAEK [DAPK3] were 2.55 ± 0.58 and 2.68 ± 0.96.
NKTNKNSVSSCDQEHQSALEEAKQ [SMOC2]: the protein stability index under setting [1] was found to be 5.13 ± 0.43 and the protein stability index under setting [2] worked out at 5.57 ± 0.3.
Taken in the same sequence, the figures for NLKTLDSKPGVYTSYKPYLNRDEE [DENND6A] were 3.6 ± 0.56 and 3.63 ± 0.38.
Taken in the same sequence, the figures for NNEAFMNQEITKAFHVRRTNRVKE [RHOBTB2] were 4.44 ± 0.25 and 4.48 ± 0.21.
As for NPALQLILTRTDKTLNKKLGQNK [TOR1AIP2], the protein stability index by setting is: under setting [3], 3.87 ± 0.16; under setting [4], 3.89 ± 0.12.
Consider NQIMPKTGFLIIILAIIAKEGDCA [MAGEA6], for which the protein stability index runs as follows: under setting [1], 2.98 ± 0.45; under setting [2], 2.47 ± 0.61.
Taken in the same sequence, the figures for NQLLVADVKRLGKQNARFLTSMRR [STX11] were 2.97 ± 0.079 and 3.08 ± 0.41.
NQYATCRLCGRQVSRGPGVNVGTT [ZBED2]: the protein stability index turned out to be 2.39 ± 0.27 under setting [1] and 2.58 ± 0.46 under setting [2].
On the same counts, the results for NSDLNNLLFCCQCVDVVFYNPDLK [RHOBTB3] are 2.28 ± 0.99 and 2.59 ± 0.6.
Taken in the same sequence, the figures for NSKPQDLTDAYGPPSNFLEIDIFN [SNX12] were 3.63 ± 0.18 and 3.83 ± 0.24.
On the same counts, the results for NVEAQLSEIRCDLERQNQEYQVLL [KRT36] are 3.58 ± 0.29 and 3.53 ± 0.21.
Take NWQPAVPLMHMLHLSGALDFPRQS [SPATS1]: the protein stability index reads like this: under setting [1], 2.07 ± 0.39; under setting [2], 2.15 ± 0.52.
On the same counts, the results for NYGADTNTRNYEGQTPLAVSISIS [ASB7] are 2.65 ± 0.45 and 2.77 ± 0.48.
Taken in the same sequence, the figures for PAEESKPAPSPHEEPCSPGLLQDQ [CBY2] were 5.33 ± 0.27 and 5.14 ± 0.31.
As for PAGCMYIHGGVVNIHENKRTGSLF [KLHDC10], the protein stability index by setting is: under setting [1], 2.52 ± 0.18; under setting [2], 2.45 ± 0.26.
On the same counts, the results for PAHLYFQAHGSEGLTFQGLLPLTE [PLEKHN1] are 2.85 ± 0.045 and 2.9 ± 0.083.
On the same counts, the results for PALDWDSVHVPGPHAMTIQELVDY [PTPN9] are 4.08 ± 0.2 and 4.31 ± 0.15.
On the same counts, the results for PAQVPREVLKVQTHLENPTRYHLQ [TFE3] are 3.75 ± 0.43 and 3.82 ± 0.093.
On to PARDYSQYYRTIEELQNKILTATV [KRT17], for which the protein stability index under setting [1] is 2.28 ± 0.2 and the protein stability index under setting [2] came out at 2.34 ± 0.21.
With PCKTRDDEPVCGRPLGIRAGPNGT [APMAP], the protein stability index stood at 3.9 ± 0.36 under setting [1] and 4.14 ± 0.093 under setting [2].
As for PDDPEHLAARRQWRDECLMRLAKL [CRYL1], the protein stability index runs as follows: under setting [1], 3.66 ± 0.6; under setting [2], 3.83 ± 0.36.
Regarding PEAISPDLVKKIRDFHRKILTLPE [TRIM15], the protein stability index is, setting by setting: under setting [1], 2.51 ± 0.17; under setting [2], 2.68 ± 0.37.
On the same counts, the results for PEEPLNGESYESCCPTSREAAVEA [FEM1A] are 5.37 ± 0.18 and 5.28 ± 0.31.
Taken in the same sequence, the figures for PEGLDSDFLAVLSDYPSPDISPPI [SLA] were 4.08 ± 0.11 and 4.14 ± 0.097.

The record behind these values is the supplement of paper PMC10567573.
